The source of these data is the supplement of paper PMC12042874.

± gives the uncertainty stated by the source.

A short description of this data set: amyloid nucleation score (Sup35N fusion, yeast selection) (log enrichment); library NNK1; higher = more nucleation; inactive = no reads after selection. The essentials: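 Yeast lacking psi expressed peptides of 20 random codons fused to Sup35N, received 100 μM copper sulfate for 24 hours, and were then grown for 7 days at 30°C on medium lacking adenine and uracil. Illumina sequencing of input and output plasmid inserts provided the reads. Nucleation scores are DiMSum log enrichments of output over input, centred on the mode of non-aggregating sequences. Any sequence with under 100 input reads was excluded.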

With LVHVGSQHKTFTPCSMEFLI, the amyloid nucleation score entry was “inactive”.
In turn, RRLHMLVNHLKCAGATRGGR came in with an amyloid nucleation score of -0.172 ± 0.34.
The same measure for QRVGCKW: -0.771 ± 0.88; for IVRIESVEFSDYADFAFEVR: 0.67 ± 0.59.
In the case of TASFY, the amyloid nucleation score is -0.41 ± 1.6.
The substance SRDVVSAGYKKCGYGMYCTK showed an amyloid nucleation score of 1.11 ± 0.37.
The same measure for AVPRAFIQKCSSITLSVYPM: -0.504 ± 0.99.
The same measure for VHFDRCDLWPGMM: 0.136 ± 0.76; for GCVLFDLSHL: -1.92 ± 2.4; for RSGGTSSTALQQQLRFNRTR: 0.581 ± 0.33.
To GISCFHW belongs 1.98 ± 0.18.
In turn, HMVHGMFY registered an amyloid nucleation score of -0.251 ± 0.7.
To NGVRYTVRLFMVLWR belongs -1.58 ± 2.4; to SYVVETQFSSHFSVLWDLMF, -1.49 ± 1.2; to SAPFMNGLCTLSRVREISAH, 0.222 ± 0.59.
To DYGAKDHFPIAITKEVMSLN belongs -0.394 ± 1.2.
To RGLVFEGKLAFTVATVVFFW belongs -1.19 ± 1.4; to LLFSKRVLVSWGFDRGGSEE, 0.336 ± 0.57; to TSDRTKSVLMVYSWV, -0.576 ± 0.92.
Substance CYCFGQCWYDYVCIELLIGR returned an amyloid nucleation score of 5.06 ± 0.052.
For MPIEYG, the amyloid nucleation score is -0.27 ± 0.71.
To ILVTLHMTCLRRSRNTLSFY belongs -0.45 ± 1.5; to LAHLCINIVSKCSNSWTIGT, 0.55 ± 0.57; to CEGMVIMVGRVLRTSYLYNL, 0.001 ± 0.61.
To KVFGTRPSQCLGFN belongs -0.806 ± 0.65.
Turning to NRECYYRPGNALNHGFFQIL, the amyloid nucleation score worked out at 0.479 ± 1.2.
To LCVEVS belongs 0.369 ± 0.42.
To CSKSS belongs -0.909 ± 2.7; to GGCMV, 0.493 ± 0.42; to LYLYNYRFAGLFFIDLETIW, -0.415 ± 0.57.
To MFIYIYGVPVLTLWGFNVCV belongs 0.856 ± 0.48.
Substance EHSFRNRCEAANWLVWLRVI had an amyloid nucleation score of -0.061 ± 0.51.
Turning to FNLWIP, the amyloid nucleation score worked out at 2.13 ± 0.17.
To WISFPLV belongs 0.046 ± 0.48; to QVDHKIWKGTVYDLSMGMM, -0.35 ± 0.46.
To FSVRGYSNLSAEDFINLKVP belongs -0.522 ± 1.4; to DHYYVVAFFRQLWRCCLFRV, “inactive”.
The same measure for GRGLADISYVYRDVWICLAI: 0.83 ± 0.43.
CSSALGIMKWTRIYVCRGRG came in with an amyloid nucleation score of 1.6 ± 0.24.
To TAWSSHPEV belongs -1.16 ± 2.4; to STTILCLLI, 5.21 ± 0.061.
The same measure for QVNNPSTWLMRNQIDQKLLR: -1.8 ± 1.7; for AIIERADLSGMPLFSGFPGD: -0.148 ± 0.8.
To RCYVDKSYNGDWASSAGQKH belongs 0.065 ± 0.44; to NGWNYM, -0.349 ± 1.
In turn, AWDFWTWVSSGVWWYDASVR had an amyloid nucleation score of -0.398 ± 0.91.
The same measure for LCSWADLDNKDLKSPR: 0.102 ± 0.43.
GFRLMLFVRTM gave an amyloid nucleation score of 1.04 ± 0.45.
The same measure for MSLSDNWGL: -0.288 ± 0.69; for ACEELVQIVVYCDSFMFSPS: 1.46 ± 0.52; for LAFTCFH: 0.568 ± 0.28.
The same measure for CSLSETFPKVYFMWTQRSYV: -1.36 ± 2.4; for ACSPGTVVKDITDTSK: 0.45 ± 0.63.
To RLMNFE belongs -0.257 ± 0.43; to FVGSSFGDDFISVSIHSWRP, “inactive”; to GCLRVSDTIRGMPRQSLDWA, 0.445 ± 0.28.
MRCSDFELMWFQIDDKYVDN: the amyloid nucleation score is -0.201 ± 0.17.
The same measure for PLFVVRIDEISSDSIRGAGH: 1.88 ± 0.53.
For the substance SMDLLRDLSVDKWAFF, the amyloid nucleation score is 0.133 ± 0.33.
The same measure for NRYGWHSPDVPLAHIS: -0.029 ± 0.87; for TCLTY: -0.846 ± 2.4; for SCYGEFEPFRESRMGRSNLA: 0.538 ± 0.75.
CVLSPALFMRARLLRGILGR came in with an amyloid nucleation score of 0.332 ± 0.72.
In turn, CYGFLVSMMSYLSLVELVFL gave an amyloid nucleation score of -0.04 ± 0.26.
As to SLSRLRHNSFWQRTFAMLVS, the amyloid nucleation score entry was “inactive”.
To HLVKHVLCSKCTFDVLIIIY belongs 1.08 ± 0.21; to DERNACLSSFGVNLRLIKLS, -0.002 ± 0.4; to EALLWTEGMWHSSGGLYSNV, 0.261 ± 0.27.
To AYAKLYKLSVLEPGRRVRMQ belongs 1.21 ± 0.57.
To LTNTGEYQLVSTIPQGRHVV belongs -0.222 ± 0.36; to QMTVGQYSCL, 0.45 ± 1.1; to SVLGSHSRAKLITAWPTRKI, “inactive”.
Substance GGRKKQLLDNYKGTYLVARI had an amyloid nucleation score of -0.096 ± 1.1.
To TYPLGNSESISVRLFIQYVT belongs 1.39 ± 0.12; to WLVGKTCNLYDLVLASLSNG, -0.704 ± 0.4.
Consider QGNHVKCVLCRVIPMRCLGL, for which the amyloid nucleation score was -1.41 ± 1.1.
To AHYRRVSVAQTHWMADPFGR belongs 0.976 ± 0.36; to GHSRSSGLLKKFCVKSRQDA, 0.234 ± 0.66; to WNPYPTCSYSPFATSGDSAF, -1.13 ± 0.76.
To EANCLFEWSMMLRYSARDGT belongs 0.312 ± 1.4; to RCSFIS, -0.682 ± 0.75; to LGATGIGVYTVGHTFKS, -0.382 ± 0.44.
Substance VGKVCRTFNRSMGETS registered an amyloid nucleation score of 0.439 ± 0.92.
As to WHPAKMILEYAEVRSNL, the amyloid nucleation score was -0.032 ± 0.39.
To GSDNLDFRCNWVYN belongs 0.616 ± 0.69; to SPFSGVL, 0.589 ± 0.25; to PIKEVPNTSRLLFSVCMKWH, 0.504 ± 0.74.
The same measure for SAHHLVIRFGMLYPREQHCL: 0.299 ± 0.43.
Turning to SHTRQ, the amyloid nucleation score is -0.223 ± 0.91.
The same measure for LYYRKLVCWESGMA: 0.318 ± 0.66; for LRTLPHYNV: 0.596 ± 1.2; for GTDYIKVSASPRSFMYDSSV: 1.88 ± 0.62.
To WFFGRYHGTGQNMFRG belongs 2.15 ± 0.18; to FRTHVGSDCGL, -0.026 ± 1; to QCYIGVKYHSALVWDHTPEA, 2.29 ± 0.61.
To MIMTW belongs -0.418 ± 0.48.
MDSRAVYYF: the amyloid nucleation score entry was “inactive”.
GGRLNQHLRSNNTGTHHPGY gave an amyloid nucleation score of -0.533 ± 0.31.
The substance SRGHDVRLTACDADGGLGLC came in with an amyloid nucleation score of -0.17 ± 0.46.
The same measure for SKSGLGYTGHLLVREREVVV: 0.474 ± 1; for WSMLSADSRISYYIYQCSLF: 2.31 ± 0.32.
Take SACNLPACRSNKLAGRGRVM: the amyloid nucleation score turned out to be 0.408 ± 0.42.
To VTWVWFGVLVCFRRDGTLTY belongs 0.676 ± 0.85.
The substance KHSGFQTCVNYLD had an amyloid nucleation score of -0.194 ± 0.42.
The same measure for STTYCFFSYAGLRICYALMG: 1.3 ± 0.2.
To VVHHEDYMRLGC belongs -0.948 ± 1.4; to NGCTIVGVTKGSLNH, 1.04 ± 0.24; to ILNTTHCHKHKKTCEHSACD, -0.883 ± 0.48.
To RIAFFS belongs 1.25 ± 0.57.
In the case of LSEKYTIPVLFHVLKIITGI, the amyloid nucleation score came to 0.495 ± 0.45.
To LVLGWRFIVPRVNLISLGFV belongs “inactive”; to TFRQVPAQFNMASRDKNSTI, “inactive”.
The same measure for LLGNSLAVSFSFNSLVNHYS: 6.02 ± 0.063; for GRLIGDSWLGYTKSGPGRKR: “inactive”.
LITMGMTRIYILMISDYLKF: the amyloid nucleation score is 0.701 ± 0.51.
The same measure for SRVEWEDVYENVGGKGTSRE: -0.087 ± 0.44; for DIGHFHGTDMGCNIF: “inactive”; for YIWSVYLLLCWHWCRMSCSG: 1.23 ± 0.6.
The same measure for FSFRRFCLCMLREGHTRQLG: -0.957 ± 2.4.
To RWRKVGIKEGLIMLESGVSR belongs -0.921 ± 2.4.
In the case of AWIPFVNTKTEWRVMDVNFD, the amyloid nucleation score came to 0.399 ± 0.62.
Consider FGSSVSAVNFRVV, for which the amyloid nucleation score was -0.448 ± 0.4.
To TCLMRSRLACMFVRINEW belongs 1.19 ± 0.62.
The same measure for TSRGSGSVWLDFFSHHGKIG: -0.218 ± 1.4; for EWYLIYGGTRSGLIYRSYAR: 0.109 ± 0.38.
To LFTTFNNLISVFTVVLNSNQ belongs 6.79 ± 0.076; to NNLSANVSLGPGCAGGQPRA, 0.764 ± 0.61.
Substance RIPRFLNSLSEYYYLDFHYG gave an amyloid nucleation score of 1.15 ± 0.23.
To GNLFITACFHAFVIWFHNGN belongs “inactive”.
The same measure for CFSHVWVDLIDFYVRFVLFR: -0.209 ± 0.69; for RTINMQLVTLYLTSRVVDNF: 1.1 ± 0.47; for RLLFLFVHVSYGI: 0.014 ± 0.47.
Regarding CEEKCSHNVGTY, the amyloid nucleation score was determined as 0.458 ± 0.55.
Turning to VSINGGEYMSEFAGICGPVD, the amyloid nucleation score stood at 1.83 ± 0.46.
TSEGHSLRNEEEGSSEGRCK returned an amyloid nucleation score of 0.905 ± 0.51.
The substance YFLLLRFY showed an amyloid nucleation score of 0.094 ± 0.44.
To MPDYVSFTSRMPLRLKLLLS belongs “inactive”; to NLLVCGVLRNCVSGTMF, 0.312 ± 1.2.
Take AYCRTNTNLRVLRIWNK: the amyloid nucleation score was -0.611 ± 0.53.
The same measure for ALRGVRVMWAKRS: -0.484 ± 0.88.
